# Experimental data: US8926966B1 (Regents of the University of California, priority 1990, dated 2015)
# B1: GAD65: rat GAD65 expressed in bacteria, ^35S-labeled, in bacterial lysate (protein, UniProt Q05683 1-585, looked up)
# Glutamate decarboxylase 2: MASPGSGFWSFGSEDGSGDPENPGTARAWCQVAQKFTGGIGNKLCALLYGDSEKPAESGGSVTSRAATRKVACTCDQKPCSCPKGDVNYALLHATDLLPACEGERPTLAFLQDVMNILLQYVVKSFDRSTKVIDFHYPNELLQEYNWELADQPQNLEEILTHCQTTLKYAIKTGHPRYFNQLSTGLDMVGLAADWLTSTANTNMFTYEIAPVFVLLEYVTLKKMREIIGWPGGSGDGIFSPGGAISNMYAMLIARYKMFPEVKEKGMAAVPRLIAFTSEHSHFSLKKGAAALGIGTDSVILIKCDERGKMIPSDLERRILEVKQKGFVPFLVSATAGTTVYGAFDPLLAVADICKKYKIWMHVDAAWGGGLLMSRKHKWKLNGVERANSVTWNPHKMMGVPLQCSALLVREEGLMQSCNQMHASYLFQQDKHYDLSYDTGDKALQCGRHVDVFKLWLMWRAKGTTGFEAHIDKCLELAEYLYNIIKNREGYEMVFDGKPQHTNVCFWFVPPSLRVLEDNEERMSRLSKVAPVIKARMMEYGTTMVSYQPLGDKVNFFRMVISNPAATHQDIDFLIEEIERLGQDL
# modifications: 35S-labeled
# notes: rat GAD65 expressed in bacteria, ^35S-labeled, in bacterial lysate
# Tests used:
# NOD mice [1] = test: Insulitis score after tolerization of NOD mice; assay type: in vivo, mouse; settings: examined at 12 weeks
# NOD mice [2] = test: GAD immunization of 8 week old NOD mice, IDDM onset; assay type: in vivo, mouse
# Text: Breeder mice were purchased from Taconic Farms and housed under specific pathogen-free conditions. Only female NOD mice were used in this study. […] Insulitis is generally observed beginning at 4 weeks of age. […] The incidence of IDDM in female mice is 70-90% by one year of age.
# Urine glucose levels were monitored twice weekly. After observing above normal glucose in urea, blood glucose levels were monitored twice weekly.
# [3] = test system: spleen cells of NOD, BALB/c and (NOD/BALB/c) F1 mice; settings: <4 or >16 week old NOD or control BALB/c or (NOD/BALB/c) F1 spleen cells
# Experimental: Incorporation of label was measured by liquid scintillation counting.
# NOD mice [4] = test system: NOD mice
# Experimental: 1. […] At 12 weeks of age, mice were examined for insulitis and autoantigen reactive T-cells. […] Pancreatic tissue sections were stained by immunoperoxidase techniques for insulin and were counterstained with hematoxylin. Insulitis was scored in a blinded manner by examining 54 to 87 islets on 5 interrupted tissue sections from each pancreas. Proliferative splenic T-cell responses induced by various antigens were performed as described above in Example 4. Data in Table 8 are expressed as the average [^3H]-thymidine label (cpm) incorporated in triplicate cultures.
# [5] = test system: autoantibodies to GAD in patient sera; test: Immunoprecipitation of ^35S-GAD65 / ^35S-GAD67 by sera drawn prior to IDDM onset; assay type: binding, human; set-up: key to band intensity of immunoprecipitated ^35S-GAD: 1 = lowest; 2 = medium; 3 = highest band intensities
# Experimental: (§1) Islet cells were extracted as previously described by Atkinson, et al. (Lancet, 335:1357-1360, 1990) with the following modifications. […] The protein A Sepharose CL-4B was then boiled in Laemmli sample buffer (Laemmli, Nature, 227:680-685, 1970), and the samples were subjected to SDS-PAGE and fluororadiography (Kodak, X-omat AR5) using Enhance (New England Nuclear). Alternatively, the autoradiographs were analyzed by a BETAGEN (Boston, Mass.) analyzer. Both 64KA positive and negative sera were used in each assay, to serve as interassay controls. All fluororadiographs were analyzed and rated as positive or negative after comparison with the known interassay controls. […] A similar rating procedure was employed for the intensity of bands corresponding to immunoprecipitated ^35S-GAD65 and ^35S-GAD67.
# Rat GAD65 and GAD67 cDNAs were subcloned into a bacterial expression system as previously described. Labeling of ^35S-GADs was completed by pulsing IPTG induced bacterium (growing in Minimal Media) for 15 minutes with TRAN ^35S-label (ICN). Cultures were then spun down and resuspended and sonicated in 1 ml of homogenizing buffer (1 mM phenylmethylsulfonyl fluoride (PMSF), 1 mM 2-aminoethylisothiouronium Bromide (AET) and 60 mM potassium phosphate, pH 7.1). After sonication, cell debris was removed by centrifugation and protein concentration was measured (Bradford, Anal. Biochem., 72:248, […]) in the supernatant (supernatant was stored in aliquots at −70° C.).
# [6] = test system: autoantibodies to the 64 kD autoantigen; test: Prior absorption of IDDM serum, recognition of 64 kD pancreatic polypeptide; assay type: binding; settings: human pancreatic islet cell lysate
# Experimental: as §1
# Prior absorption of these sera with GAD-6 monoclonal, which recognized GAD65 but not GAD67, or with bacterially produced GAD65, abolished the ability of the sera to recognize the 64 kD pancreatic polypeptide. […] In order to investigate the predictive value of GAD65, sera drawn from patients prior to onset of clinical manifestation of IDDM were tested for autoantibodies to GAD65.
molecule,measurement,setting,value
glutamic acid decarboxylase [GAD],insulitis score of the completely tolerized mice,"NOD mice [1]; NOD mice, 50 μg i.v. at 3 weeks",0.0
same,Insultis Score,"NOD mice [1]; Table 8A: female NOD mice, i.v. at 3 weeks of age, 50 μg (hsp-p 0.1 μg) in PBS, scale 0-4, mean ± SE",0.1 ± 0.1
same,significance of delay of diabetes versus β-gal immunized mice,"NOD mice [2]; 25 ug i.p. in IFA at 8 weeks, again every 6 weeks",< 0.02
same,onset of IDDM compared to control β-gal immunized mice,NOD mice [2]; FIG. 11,clear delay in the onset of IDDM
same,immunized mice with no signs of hyperglycemia until 36 weeks in age,"NOD mice [2]; of 10 mice, 25 ug i.p. in IFA at 8 weeks, again every 6 weeks",8
same,T cell proliferation,[3],did not induce T cell proliferation
same,glucose levels of treated mice,"NOD mice [4]; all treated mice, n=17, presently 37 weeks old",normal glucose levels
same,insulitis at 30 weeks of age,"NOD mice [4]; five treated mice sacrificed at 30 weeks, one had very limited peri-insulitis",four mice were completely free of insulitis
B1,specimens immunoreactive,[5]; 9 out of 12 sera drawn prior to IDDM onset,75%
same,band intensity of immunoprecipitated ^35S-GAD,"[5]; serum of patient eight, drawn 8 months before IDDM onset",0
same,band intensity of immunoprecipitated ^35S-GAD,"[5]; serum of patient eleven, drawn 10 months before IDDM onset",1
same,band intensity of immunoprecipitated ^35S-GAD,"[5]; serum of patient five, drawn 34 months before IDDM onset",1
same,band intensity of immunoprecipitated ^35S-GAD,"[5]; serum of patient nine, drawn 42 months before IDDM onset",1
same,band intensity of immunoprecipitated ^35S-GAD,"[5]; serum of patient one, drawn 9 months before IDDM onset",1
same,band intensity of immunoprecipitated ^35S-GAD,"[5]; serum of patient seven, drawn 3 months before IDDM onset",0
same,band intensity of immunoprecipitated ^35S-GAD,"[5]; serum of patient six, drawn 11 months before IDDM onset",0
same,band intensity of immunoprecipitated ^35S-GAD,"[5]; serum of patient ten, drawn 25 months before IDDM onset",1
same,band intensity of immunoprecipitated ^35S-GAD,"[5]; serum of patient three, drawn 14 months before IDDM onset",2
same,band intensity of immunoprecipitated ^35S-GAD,"[5]; serum of patient twelve, drawn 4 months before IDDM onset",1
same,band intensity of immunoprecipitated ^35S-GAD,"[5]; serum of patient two, drawn 6 months before IDDM onset",3
same,band intensity of immunoprecipitated ^35S-GAD,"[5]; serum of patient, drawn 66 months before IDDM onset",1
same,ability of patient four sera to recognize the 64 kD pancreatic polypeptide after prior absorption,[6],abolished
